Test system: HEK-293 cells
Assay: Resazurin high throughput proliferation assay, HEK-293
Type: cell-based, human
Settings: versus base medium with 1% FBS; each ligand at three concentrations
Protocol: Resazurin is a metabolic dye which is converted to a fluorescent product. The greater the amount of the fluorescent product that is generated, the more metabolism, which directly correlates with cell number.
In this assay, resazurin was added to HEK-293 cells plated in each well of a 24-well assay plate containing a test medium containing one of the 16 ligands corresponding to the positive growth factors/cytokines and incubated at 37° C. After a 30 minute incubation, the plate was analyzed on a standard fluorescence plate reader. A higher RFU value from the plate reader translates to a higher cell density in the wells.
Briefly, the 16 ligands corresponding to positive growth factor/cytokine receptors were tested in the resazurin assay, each ligand at three different concentrations. […]
Cells were plated in each well of a 24-well tissue culture treated plate containing 1 ml of a base medium. […] After sufficient incubation time to convert some of the resazurin, the fluorescence was measured on a HTS 7000 Plus BioAssay Reader (Perkin-Elmer, Boston, Mass.). Readings were taken once a day until the culture was confluent (typically about 4 days). A plate with base medium only (no cells) was used as a blank and subtracted from the RFU reading to establish the final RFU values.

B1: oncostatin M (protein, UniProt P13725 26-221, looked up)
Oncostatin-M: AAIGSCSKEYRVLLGQLQKQTDLMQDTSRLLDPYIRIQGLDVPKLREHCRERPGAFPSEETLRGLGRRGFLQTLNATLGCVLHRLADLEQRLPKAQDLERSGLNIEDLEKLQMARPNILGLRNNIYCMAQLLDNSDTAEPTKAGRGASQPPTPTPASDAFQRKLEGCRFLHGYHRFMHSVGRVFSKWGESPNRSRR
notes: ligand of oncostatin M receptor
effect on HEK-293 proliferation (RFU, resazurin): significant effect

Reference: US20040265880A1, “Genomic and proteomic approaches for the development of cell culture medium” (Sigma-Aldrich Co., priority 2003, published 2004)
